Source: the supplement of paper PMC11246515
± gives the standard deviation of the averaged measurements.

Assay: total protein half-life in vivo (active degradation + dilution); higher = more stable protein
[1] = E. coli NCM3722 delta-clpP delta-lon delta-hslV, growth: N-lim chemostat, doubling time 6 h
[2] = E. coli NCM3722 delta-hslV, growth: N-lim chemostat, doubling time 6 h
[3] = E. coli NCM3722 delta-lon, growth: N-lim chemostat, doubling time 6 h
[4] = E. coli NCM3722 delta-smpB, growth: N-lim chemostat, doubling time 6 h
[5] = wild type E. coli NCM3722, growth: C-lim chemostat, doubling time 3 h
[6] = wild type E. coli NCM3722, growth: C-lim chemostat, doubling time 6 h
[7] = wild type E. coli NCM3722, growth: C-lim chemostat, doubling time 12 h
[8] = wild type E. coli NCM3722, growth: N-lim chemostat, doubling time 6 h
[9] = wild type E. coli NCM3722, growth: N-lim chemostat, doubling time 12 h
[10] = wild type E. coli NCM3722, growth: P-lim chemostat, doubling time 6 h
[11] = wild type E. coli NCM3722, growth: P-lim chemostat, doubling time 12 h
[12] = E. coli NCM3722 delta-clpP, growth: N-lim chemostat, doubling time 6 h

Sequence | total protein half-life in vivo [1] | total protein half-life in vivo [2] | total protein half-life in vivo [3] | total protein half-life in vivo [4] | total protein half-life in vivo [5] | total protein half-life in vivo [6] | total protein half-life in vivo [7] | total protein half-life in vivo [8] | total protein half-life in vivo [9] | total protein half-life in vivo [10] | total protein half-life in vivo [11] | total protein half-life in vivo [12]
MAVEVKYVVIREGEEKMSFTSKKEADAYDKMLDTADLLDTWLTNSPVQMEDEQREALSLWLAEQKDVLSTILKTGKLPSPQVVGAESEEEDASHAA [P0ACY9] | 5.68 ± 0.58 h | 0.932 ± 0.076 h | 0.8842 ± 0.0032 h | 2.19 ± 0.32 h | 0.978 ± 0.016 h | 1.17 ± 0.072 h | 1.28 h | 1.08 h | 1.8 ± 0.069 h | 0.976 ± 0.2 h | 2.4 h | 
MAVSAKYDEFNHWWATEGDWVEEPNYRRNGMSGVQCVERNGKKLYVKRMTHHLFHSVRYPFGRPTIVREVAVIKELERAGVIVPKIVFGEAVKIEGEWRALLVTEDMAGFISIADWYAQHAVSPYSDEVRQAMLKAVALAFKKMHSINRQHGCCYVRHIYVKTEGNAEAGFLDLEKSRRRLRRDKAINHDFRQLEKYLEPIPKADWEQVKAYYYAM | 5.26 ± 0.28 h | 3.57 h | 1.15 ± 0.09 h | 0.534 h |  |  |  | 0.927 h |  | 0.144 h |  | 1.09 h
MAVTKLVLVRHGESQWNKENRFTGWYDVDLSEKGVSEAKAAGKLLKEEGYSFDFAYTSVLKRAIHTLWNVLDELDQAWLPVEKSWKLNERHYGALQGLNKAETAEKYGDEQVKQWRRGFAVTPPELTKDDERYPGHDPRYAKLSEKELPLTESLALTIDRVIPYWNETILPRMKSGERVIIAAHGNSLRALVKYLDNMSEEEILELNIPTGVPLVYEFDENFKPLKRYYLGNADEIAAKAAAVANQGKAK | 5.09 ± 0.33 h | 5.11 ± 0.76 h | 5.42 ± 0.82 h | 4.7 ± 0.09 h | 3.18 ± 0.098 h | 6.37 ± 0.56 h | 10.3 ± 0.34 h | 4.85 ± 0.46 h | 8.63 ± 0.17 h | 6.02 ± 0.45 h | 12 ± 0.62 h | 5.4 ± 0.96 h
MAYKHILIAVDLSPESKVLVEKAVSMARPYNAKVSLIHVDVNYSDLYTGLIDVNLGDMQKRISEETHHALTELSTNAGYPITETLSGSGDLGQVLVDAIKKYDMDLVVCGHHQDFWSKLMSSARQLINTVHVDMLIVPLRDEEE [P0AED0] | 3.96 h | 4.31 ± 0.27 h | 4.3 ± 0.64 h | 4.52 ± 0.15 h | 3.34 ± 0.46 h | 5.16 ± 0.1 h | 10.7 ± 1.6 h | 4.305 ± 0.0018 h |  | 5.92 ± 0.084 h | 9.86 ± 1.9 h | 4.94 ± 0.073 h
MAYLVAVTACVSGVAHTYMAAERLEKLCLLEKWGVSIETQGALGTENRLADEDIRRADVALLITDIELAGAERFEHCRYVQCSIYAFLREPQRVMSAVRKVLSAPQQTHLILE | 4.98 h |  |  |  |  |  |  |  |  |  |  | 
MAYQSQDIIRRSATNGLTPAPQARDFQEEVAKLIDVTTCIGCKACQVACSEWNDIRDTVGNNIGVYDNPNDLSAKSWTVMRFSEVEQNDKLEWLIRKDGCMHCSDPGCLKACPAEGAIIQYANGIVDFQSEQCIGCGYCIAGCPFDIPRLNPEDNRVYKCTLCVDRVVVGQEPACVKTCPTGAIHFGTKESMKTLASERVAELKTRGYDNAGLYDPAGVGGTHVMYVLHHADKPNLYHGLPENPEISETVKFWKGIWKPLAAVGFAATFAASIFHYVGVGPNRADEEENNLHEEKDEERK [P0AAJ5] | 4.44 ± 0.47 h | 3.37 h |  | 3.15 h |  | 6.15 h | 7.88 h | 5.98 ± 0.62 h |  | 5.29 h |  | 
MAYRDQPLGELALSIPRASALFRKYDMDYCCGGKQTLARAAARKELDVEVIEAELAKLAEQPIEKDWRSAPLAEIIDHIIVRYHDRHREQLPELILQATKVERVHADKPSVPKGLTKYLTMLHEELSSHMMKEEQILFPMIKQGMGSQAMGPISVMESEHDEAGELLEVIKHTTNNVTPPPEACTTWKAMYNGINELIDDLMDHISLENNVLFPRALAGE |  |  | > 8 h | 2.54 h | 2.72 h |  |  |  |  |  |  | 
MAYSIGIDSGSTATKGILLADGVITRRFLVPTPFRPATAITEAWETLREGLETTPFLTLTGYGRQLVDFADKQVTEISCHGLGARFLAPATRAVIDIGGQDSKVIQLDDDGNLCDFLMNDKCAAGTGRFLEVISRTLGTSVEQLDSITENVTPHAITSMCTVFAESEAISLRSAGVAPEAILAGVINAMARRSANFIARLSCEAPILFTGGVSHCQKFARMLESHLRMPVNTHPDAQFAGAIGAAVIGQRVRTRR | 4.12 h |  |  |  | 2.01 ± 0.18 h | 3.66 ± 0.33 h | 6.35 ± 0.44 h |  |  |  |  | 4.27 h
MAYTTFSQTKNDQLKEPMFFGQPVNVARYDQQKYDIFEKLIEKQLSFFWRPEEVDVSRDRIDYQALPEHEKHIFISNLKYQTLLDSIQGRSPNVALLPLISIPELETWVETWAFSETIHSRSYTHIIRNIVNDPSVVFDDIVTNEQIQKRAEGISSYYDELIEMTSYWHLLGEGTHTVNGKTVTVSLRELKKKLYLCLMSVNALEAIRFYVSFACSFAFAERELMEGNAKIIRLIARDEALHLTGTQHMLNLLRSGADDPEMAEIAEECKQECYDLFVQAAQQEKDWADYLFRDGSMIGLNKDILCQYVEYITNIRMQAVGLDLPFQTRSNPIPWINTWLVSDNVQVAPQEVEVSSYLVGQIDSEVDTDDLSNFQL | 4.55 ± 0.57 h | 3.45 ± 0.054 h | 4.25 ± 0.52 h | 3.62 ± 0.26 h | 3.04 ± 0.28 h | 5.7 ± 0.76 h | 9.25 ± 0.099 h | 3.415 ± 0.022 h | 5.12 ± 0.56 h | 5.24 ± 0.12 h | 9.5 ± 0.26 h | 4.92 ± 1.1 h
MCEGYVEKPLYLLIAEWMMAENRWVIAREISIHFDIEHSKAVNTLTYILSEVTEISCEVKMIPNKLEGRGCQCQRLVKVVDIDEQIYARLRNNSREKLVGVRKTPRIPAVPLTELNREQKWQMMLSKSMRR [P0AE58] | 3.96 ± 0.18 h |  |  |  |  |  |  |  |  |  |  | 
MCIGVPGQVLAVGEDIHQLAQVEVCGIKRDVNIALICEGNPADLLGQWVLVHVGFAMSIIDEDEAKATLDALRQMDYDITSA [P0AAM7] | 4.75 ± 0.12 h |  |  |  |  | 2.77 h |  |  |  |  | 2.51 h | 
MDAKQTRQGVLLALAAYFIWGIAPAYFKLIYYVPADEILTHRVIWSFFFMVVLMSICRQWSYLKTLIQTPQKIFMLAVSAVLIGGNWLLFIWAVNNHHMLEASLGYFINPLVNIVLGMIFLGERFRRMQWLAVILAICGVLVQLWTFGSLPIIALGLAFSFAFYGLVRKKIAVEAQTGMLIETMWLLPVAAIYLFAIADSSTSHMGQNPMSLNLLLIAAGIVTTVPLLCFTAAATRLRLSTLGFFQYIGPTLMFLLAVTFYGEKPGADKMVTFAFIWVALAIFVMDAIYTQRRTSK |  |  |  |  |  |  |  |  | 7.87 h |  |  | 
MDDCGAILHNIETKWLYDFLTLEKCRNFSQAAVSRNVSQPAFSRRIRALEQAIGVELFNRQVTPLQLSEQGKIFHSQIRHLLQQLESNLAELRGGSDYAQRKIKIAAAHSLSLGLLPSIISQMPPLFTWAIEAIDVDEAVDKLREGQSDCIFSFHDEDLLEAPFDHIRLFESQLFPVCASDEHGEALFNLAQPHFPLLNYSRNSYMGRLINRTLTRHSELSFSTFFVSSMSELLKQVALDGCGIAWLPEYAIQQEIRSGKLVVLNRDELVIPIQAYAYRMNTRMNPVAERFWRELRELEIVLS | 5 ± 0.22 h | 4.98 h | 4.5 h |  | 2.52 h | 5.18 h |  | 5.51 h |  |  | 10.4 ± 0.27 h | 
